Key:
[1] = target: human leukemia inhibitory factor (LIF), soluble (human) (UniProt P15018); assay: yeast surface display, flow cytometry; score from summed fluorescence at 10 pM and 100 pM human LIF, normalized to wild-type and to expression
[2] = target: human leukemia inhibitory factor (LIF), soluble (human) (UniProt P15018); assay: yeast surface display, flow cytometry; soluble human LIF titrated (0.001 to 100 nM), detected with a fluorescent antibody
[3] = target: human leukemia inhibitory factor (LIF), soluble (human) (UniProt P15018); assay: yeast surface display, flow cytometry; Score column of the table of sorted gp130 CBM variants (the filing gives 100 pM and 1 nM human LIF for the gp130 binding scores)

human leukemia inhibitory factor (LIF), soluble (human), sequence (P15018 23-202 limits assumed): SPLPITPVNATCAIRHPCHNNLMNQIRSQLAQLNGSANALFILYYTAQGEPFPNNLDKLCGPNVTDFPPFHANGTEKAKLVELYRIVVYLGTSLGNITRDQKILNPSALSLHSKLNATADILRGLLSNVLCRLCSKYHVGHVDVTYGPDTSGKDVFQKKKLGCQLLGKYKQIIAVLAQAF

Row | Substance | Score (normalized binding score) [1] | EC50 (read off the curve) [2] [pM] | Score (binding score) [3]
1 | ELRDSLE (receptor) | – | – | 23.6
2 | PRDSAID (receptor) | 15.8 | – | –

Other lines, results leading:

Row | Score (normalized binding score) [1] | EC50 (read off the curve) [2] [pM] | Score (binding score) [3] | Substance
3 | 7.71 | 400 | – | PDD (receptor)
4 | – | – | 15.9 | ELDI (receptor)
5 | 13.9 | – | – | PVVIDN (receptor)

Reference: patent publication US20210300992A1
